According to paper PMC11543921 (iScience, 2024):

Molecular target: the molecule itself
Assay: MALDI-TOF MS

B1: human recombinant glutamate-oxaloacetate transaminase (enzyme, UniProt P17174 1-413, looked up)
chain: MAPPSVFAEVPQAQPVLVFKLTADFREDPDPRKVNLGVGAYRTDDCHPWVLPVVKKVEQKIANDNSLNHEYLPILGLAEFRSCASRLALGDDSPALKEKRVGGVQSLGGTGALRIGADFLARWYNGTNNKNTPVYVSSPTWENHNAVFSAAGFKDIRSYRYWDAEKRGLDLQGFLNDLENAPEFSIVVLHACAHNPTGIDPTPEQWKQIASVMKHRFLFPFFDSAYQGFASGNLERDAWAIRYFVSEGFEFFCAQSFSKNFGLYNERVGNLTVVGKEPESILQVLSQMEKIVRITWSNPPAQGARIVASTLSNPELFEEWTGNVKTMADRILTMRSELRARLEALKTPGTWNHITDQIGMFSFTGLNPKQVEYLVNEKHIYLLPSGRINVSGLTTKNLDYVATSIHEAVTKIQ
stoichiometry N: 2
